The test concerns the target T1, human DNA polymerase α catalytic subunit p180 with the N-terminus (residues 1–334) deleted (human, UniProt P09884 335-1462).
T1 sequence (looked up): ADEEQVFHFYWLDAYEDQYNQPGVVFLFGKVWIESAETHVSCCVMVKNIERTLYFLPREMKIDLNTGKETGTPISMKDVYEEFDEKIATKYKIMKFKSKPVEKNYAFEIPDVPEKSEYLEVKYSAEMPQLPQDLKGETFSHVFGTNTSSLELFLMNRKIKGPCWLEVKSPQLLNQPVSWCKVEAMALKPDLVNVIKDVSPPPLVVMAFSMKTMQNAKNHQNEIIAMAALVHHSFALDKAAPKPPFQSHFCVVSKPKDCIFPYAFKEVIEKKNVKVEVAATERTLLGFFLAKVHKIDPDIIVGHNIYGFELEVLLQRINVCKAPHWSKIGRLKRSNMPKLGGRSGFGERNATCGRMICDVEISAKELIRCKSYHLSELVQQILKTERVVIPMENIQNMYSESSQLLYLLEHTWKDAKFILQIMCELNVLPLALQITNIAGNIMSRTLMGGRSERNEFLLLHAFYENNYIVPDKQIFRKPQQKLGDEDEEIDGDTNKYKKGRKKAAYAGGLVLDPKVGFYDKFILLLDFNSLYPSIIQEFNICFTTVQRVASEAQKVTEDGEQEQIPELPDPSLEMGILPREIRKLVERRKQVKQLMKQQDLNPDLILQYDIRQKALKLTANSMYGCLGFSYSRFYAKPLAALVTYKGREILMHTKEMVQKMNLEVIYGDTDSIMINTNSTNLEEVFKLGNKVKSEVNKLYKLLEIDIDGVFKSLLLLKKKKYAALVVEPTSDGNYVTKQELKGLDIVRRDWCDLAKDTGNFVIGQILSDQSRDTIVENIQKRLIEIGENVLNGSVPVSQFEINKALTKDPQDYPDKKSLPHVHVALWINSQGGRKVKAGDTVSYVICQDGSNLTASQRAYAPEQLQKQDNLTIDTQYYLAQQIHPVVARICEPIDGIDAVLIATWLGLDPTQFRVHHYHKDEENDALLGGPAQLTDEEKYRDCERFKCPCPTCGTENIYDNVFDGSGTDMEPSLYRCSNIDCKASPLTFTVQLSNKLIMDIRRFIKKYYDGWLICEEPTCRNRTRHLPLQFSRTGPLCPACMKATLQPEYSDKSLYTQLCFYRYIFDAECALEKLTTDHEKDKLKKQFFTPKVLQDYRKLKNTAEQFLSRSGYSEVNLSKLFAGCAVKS
The experiment in a line: cryo-EM structure.

B1: human DNA polymerase α accessory subunit p70 (natural protein, UniProt Q14181 1-598, looked up)
chain: MSASAQQLAEELQIFGLDCEEALIEKLVELCVQYGQNEEGMVGELIAFCTSTHKVGLTSEILNSFEHEFLSKRLSKARHSTCKDSGHAGARDIVSIQELIEVEEEEEILLNSYTTPSKGSQKRAISTPETPLTKRSVSTRSPHQLLSPSSFSPSATPSQKYNSRSNRGEVVTSFGLAQGVSWSGRGGAGNISLKVLGCPEALTGSYKSMFQKLPDIREVLTCKIEELGSELKEHYKIEAFTPLLAPAQEPVTLLGQIGCDSNGKLNNKSVILEGDREHSSGAQIPVDLSELKEYSLFPGQVVIMEGINTTGRKLVATKLYEGVPLPFYQPTEEDADFEQSMVLVACGPYTTSDSITYDPLLDLIAVINHDRPDVCILFGPFLDAKHEQVENCLLTSPFEDIFKQCLRTIIEGTRSSGSHLVFVPSLRDVHHEPVYPQPPFSYSDLSREDKKQVQFVSEPCSLSINGVIFGLTSTDLLFHLGAEEISSSSGTSDRFSRILKHILTQRSYYPLYPPQEDMAIDYESFYVYAQLPVTPDVLIIPSELRYFVKDVLGCVCVNPGRLTKGQVGGTFARLYLRRPAADGAERQSPCIAVQVVRI
On to B1, for which the binding result was “binds”.

The values are drawn from PMC10268227 (Nature structural & molecular biology, 2023).
